Data from US20210122824A1 (ADAGENE, published 2021).

What was measured:
[1] = target: T1, rhesus PD-L1-Fc fusion protein (Sino Biological cat #90251-C02H) (rhesus, UniProt F6PJN1 19-239); experiment: SPR (Biacore T200), PD-L1-Fc immobilized (about 500 RU), IgG in solution
T1 construct: not shown: Fc part

[2] = target: T2, rat PD-L1-Fc fusion protein (Sino Biological cat #80450-R08H) (rat); experiment: as above
T2 construct: text calls all four immobilized proteins PD-L1-Fc fusion proteins

[3] = target: T3, mouse PD-L1-Fc fusion protein (mouse, UniProt Q9EP73 19-238, limits assumed); experiment: as above
T3 construct: not shown: Fc part

[4] = target: T4, human PD-L1-Fc fusion protein (Sino Biological Cat #10084-H02H) (human, UniProt Q9NZQ7 19-239); experiment: as above
T4 construct: bought; not shown: Fc part of the bought fusion

[5] = target: T5, human PD-L1 expressed on cell surface (human, UniProt Q9NZQ7 19-290); experiment: flow cytometry on cells expressing human PD-L1 (legend of FIG. 5)
T5 construct: whole, on cells; also called full-length human PD-L1; cell surface PD-L1

[6] = target: T4, human PD-L1-Fc fusion protein (Sino …); experiment: SPR (Biacore T200), human PD-L1-Fc immobilized, IgG in solution
[7] = target: T5, human PD-L1 expressed on cell surface; experiment: cell-based or functional assay

T4 sequence (Q9NZQ7 19-239 limits assumed): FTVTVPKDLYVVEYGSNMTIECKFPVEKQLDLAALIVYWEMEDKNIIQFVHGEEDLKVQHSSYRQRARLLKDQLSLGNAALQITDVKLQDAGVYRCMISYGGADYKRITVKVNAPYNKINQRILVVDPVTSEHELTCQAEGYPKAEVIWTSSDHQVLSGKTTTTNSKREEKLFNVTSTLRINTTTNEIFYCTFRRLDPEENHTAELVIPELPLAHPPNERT
T3 sequence (Q9EP73 19-238 limits assumed): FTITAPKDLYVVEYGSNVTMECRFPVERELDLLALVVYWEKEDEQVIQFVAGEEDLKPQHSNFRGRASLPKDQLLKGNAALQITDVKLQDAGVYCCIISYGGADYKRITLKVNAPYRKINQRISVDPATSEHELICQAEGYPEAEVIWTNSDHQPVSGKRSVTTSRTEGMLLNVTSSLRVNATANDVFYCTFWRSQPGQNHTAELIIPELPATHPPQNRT
T5 sequence (Q9NZQ7 19-290): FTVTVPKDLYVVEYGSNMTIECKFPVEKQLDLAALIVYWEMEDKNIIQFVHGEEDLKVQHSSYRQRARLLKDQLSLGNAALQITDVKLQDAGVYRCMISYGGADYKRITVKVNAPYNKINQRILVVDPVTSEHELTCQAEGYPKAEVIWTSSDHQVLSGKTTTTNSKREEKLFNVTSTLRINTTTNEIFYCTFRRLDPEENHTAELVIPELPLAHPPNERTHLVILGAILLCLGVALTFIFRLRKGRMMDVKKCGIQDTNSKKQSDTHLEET

B1: TY21421 (antibody, V domains shown)
VH: EVQLVESGGGLVQPGGSLRLSCAASGYSISSGYYWGWIRQAPGKGLEWIGIIYPSGGGTNYAQKFQGRVTISRDNSKNTLYLQLNSLRAEDTAVYYCARGGGLGFDYWGQGTLVTVSS
VL: DIQLTQSPSSLSASVGDRVTITCRASQSIPSFLNWYQQKPGKAPKLLIYAASSLQSGVPSRFSGSGSGTDFTLTISSLQPEDFATYYCQHYISWPRQFTFGQGTKVEIKR
notes: IgG1 (wild type) made from Fab B15041, from HEK293F cells
- Kd [1]: 0.00185 nM
- koff [1]: 7.27e-06 s⁻¹
- kon [1]: 3.93e+06 M⁻¹ s⁻¹
- Kd [2]: 0.0209 nM
- koff [2]: 0.000106 s⁻¹
- kon [2]: 5.07e+06 M⁻¹ s⁻¹
- Kd [3]: 0.00186 nM
- koff [3]: 2.06e-05 s⁻¹
- kon [3]: 1.11e+07 M⁻¹ s⁻¹
- Kd [4]: 0.00619 nM
- koff [4]: 2.97e-05 s⁻¹
- kon [4]: 4.8e+06 M⁻¹ s⁻¹
- EC50 [5]: ~1 nM
- Kd [6]: < 0.01 nM
- Relative luminescence units (RLU), Promega PD1/PD-L1 reporter gene assay; EC50 [7]: 0.39 nM
